We go through 16 sequences from the DeepSol protein solubility set.

This data set in a line: soluble on expression in E. coli; label from the status in PepcDB or PDB records.
With “MSLIDYQEVLSRYRPTQEEENKLKIISDDIIRKINSICRSRGLRAEAVIVGSYAKGTNLRDGDLDIFIAFDRDYPEEIINTEGLHIGHAVIPNGREKYAEHPYVSGEIGGVKIDVVPCYKMSFGDKKISAVDRTLLHTEYVNGHLDEKGRDEVRLLKIFTKSIGVYGAEARTFGFSGYLCELLVIRFGSFENVIRYFSKAKGRVLIDLDERFRDPMVLIDPVDPDRNVASPVSLESLSRMKIASKMFLSSPDEGFFQIEHNGKNVQYHDRGTCIMIYSLPKPDLTDDVIYPQVYRFRSVLQKIMESHEIRVISSEIDVSDRIYVLIETPACAEERIRVHTGPPVDTDNAVDFVNSWKARDRSRGPYIVADRLYVDVFTGQRSIEDIVRQEIFNYSIGKNLDRFKKSMEIMKFNVGMKSLPVLDKFFGADVFRKEGHHHHHH”, the “soluble on expression in E. coli” value is reported as “soluble”.

Take “MGSDKIHHHHHHMQINRLTLTNFRGLTNSVLDFAPGFNLVVGVNGVGKTAVLEALRILLAKALPSFAEVRGFPGIGLTKDDITIDRKQAAIEVSFTHQAHTFSLLLSDQLEVVRDAVDEQKGLKDIRDIDELASLRHGQRPERGDPRLEGTLRGQTSERPRASGQLSPTPDRALKKSKPQPIVLYFSVRRAVPSPGTPKTKAGTPYQGIFEIERGLELGKIIEWWNSKATVAREAPDSRSAKQLTTTCNALERLLPHLSDWKVEDGNFTVCKVADVGVLNDESGEFEVKQETRRLPVQFLSDGERSLIAIGIDIAYRLASLNEDSETPLDDGEGIVLIDELDLHLHPQWQRTVVELLRTAFPKLQFICTTHSLFLIQSQRMGNLIQLDRIGDEEESAEQYHNQSIEDIAEEVQGIDLPQRSKRHVELMLAASEYYRALKKAEDDPNIPIEELKEKYEALSLRYSADPLVAAALDFRWETFVFKRNHATRR”: the “soluble on expression in E. coli” value is reported as “not soluble”. The same measure for “MAYNKEEKIKSLNRMQYEVTQNNGTEPPFQNEYWDHKEEGLYVDIVSGKPLFTSKDKFDSQCGWPSFTKPIEEEVEEKLDTSHGMIRTEVRSRTADSHLGHVFNDGPGPNGLRYCINSAALRFVPKHKLKEEGYESYLHLFNK”: “not soluble”; for “MVKVYGSTVDNESRCTHYQTPLDIIAIKFKCCNKYYPCYKCHNEHESHKIQRWQANEFHEKAILCGVCNHEMTINDYMMIEACPKCDAHFNNRCKYHYHLYFEILEHHHHHH”: “soluble”; for “MSAICQVTGRQPGYGKSVSHSHRRTSRRWNPNVQRRKFYLPSEGRTITLNVSTKGLKVIDRDGIESVVAKIRARGEKILEHHHHHH”: “not soluble”. Consider “MPHFYEYLEFNRDEDREHQLDVYVGVQLEADTIAKITALETASEWLIMAEPYCPDCVEVVAYFQRISQLNPAINVKYVARKDNTQRHYFDSDRQQQAVIAVEKIPAIFNISSAETELVLAEFPAFLKAEMAEHPMQFDALKADFRMGKFGKRLEAELVEILTR”, for which the “soluble on expression in E. coli” value was “not soluble”. For “MLRVLVRTGSEACRAVSTSTAVLSVHPVVKSEDLSAKEIWDRRSKLRVPKLQKDEQLSSKVYFAPEWDLEKKPNLDEGFVNPLKGYGMTPEKWEYYNKVVWPPNYIVPETGLPKPKEVFHCKESVHFSPKRMWAACQLVWKMNVDEAITQLDMQQLKACNLLMDTIKKAKSRAADEFHIEYPSQMYVADAFPVQSNIVKGARRHAHDNWNTIRYRYIHIFVRLEEGPAPQQKQRHPQKNGWDHMDEYYNYLRSRTVKYSI”, the “soluble on expression in E. coli” value was “not soluble”. Regarding “MKLRSVTYALFIAGLAAFSTSSLAAQSLRFGYETSQTDSQHIAAKKFNDLLQERTKGELKLKLFPDSTLGNAQAMISGVRGGTIDMEMSGSNNFAGLSPVMNLLDVPFLFRDTAHAHKTLDGKVGDDLKASLEGKGLKVLAYWENGWRDVTNSRAPVKTPADLKGLKIRTNNSPMNIAAFKVFGANPIPMPFAEVYTGLETRTIDAQEHPINVVWSAKFFEVQKFLSLTHHAYSPLLVVINKAKFDGLSPEFQQALVSSAQEAGNYQRKLVAEDQQKIIDGMKEAGVEVITDLDRKAFSDALGNQVRDMFVKDVPQGADLLKAVDEVQ”, the “soluble on expression in E. coli” value is given as “not soluble”. For “MSLTLVTELTPPAASAPPFSDHPDHVIAAVTATIVDLPLRRPHFHATGTHATQSLVMVELVTSGGAVGWGEGGTPGGTAFWGGECVETIKLMIDHYLAPAVIGISVFDQERILAAMDRIAANNHFAKAAIDIAVHDAAARLIGISVSQMFGGTARSTVPVLWALAAAAYEADVADAIEQIEAGRHSVFKIKIGKGDAASETRRALETATTIHDAHPDARFVVDLNQAWDESTAMRWLAAFQERDFLFVEQPVPAWNVEGMIRLASRFEIPIMADEGLWDFHDAYELIRRGATDIYAVKIAKGGGLRRAFKAAAVAEAAGVPLYGGMALESSVGTAAGLQLFSALPNLPFGCELIGPRLLAEDLTVQPIAYRDREVVVPSGVGMGVEIDRDRVRSFTRRNKEGHHHHHH” the value was “soluble”; for “MIVTVTMNPSIDISYLLDHLKLDTVNRTSQVTKTPGGKGLNVTRVIHDLGGDVIATGVLGGFHGAFIANELKKANIPQAFTSIKEETRDSIAILHEGNQTEILEAGPTVSPEEISNFLENFDQLIKQAEIVTISGSLAKGLPSDFYQELVQKAHAQEVKVLLDTSGDSLRQVLQGPWKPYLIKPNLEELEGLLGQDFSENPLAAVQTALTKPMFAGIEWIVISLGKDGAIAKHHDQFYRVKIPTIQAKNPVGSGDATIAGLAYGLAKDAPAAELLKWGMAAGMANAQERMTGHVDVENVKKHLMNIQVVEIAK”, “not soluble”.

As to “SLLQLNSPHVHNLFNTPFSAAIMDDVVIGLEVHVQLNRLRTKLFCSCPLNYHQSPPNTHVCPVCLGMPGAMPVINKEAVKAAVKVAMALNAEIQPFTVFDRKNYFYPDLPKGFQISQYDRPLALGGYVTIELDGQEKRIQLKRVHMEEDPGKLSYKGSITTAKYSLIDYNRSGAPLLEIVTEPVMNSPKEARLFLNKLRMILEYLEVFDGDLEGAMRVDANISIRGSGRVEIKNISSFKGVEKALSYEIMRQKNLLQRGRSVVRETRHFDEARNITVSLRSKEEEQDYRYFPEPDLVPVLTEEIVREVEGTLPEMPEEKRERLKRQYGIGDNFAKVLILDVKMADYFEEVAKLVDPKLAASWIVDVLRGELNYRDWSFAKCWEVFKPEEFAKLLKYFEEDRITEKGVVEVIRTKLDEGGEIDAIIQKKGLFAIPKEEIIKFCKEAIEENPKAVEDYLSGKRQALNFLVGQVMKKTRGRADPADTAKLIEEMLS”, the “soluble on expression in E. coli” value is recorded as “soluble”. For the sequence “MPADPRNAGKDKGNLQMELQNLLTSARIRKMEYEAIVEELEEDELKYDLFEYQDYLENYIMPYVERAYKNGSKELIGMAEEVKSIFEEIIDMIKARIEKK”, the “soluble on expression in E. coli” value is recorded as “not soluble”.

As to “MGQKRMNKSNKLVIINRAIPGGGKTSLIKQIEELAKSLGHSISVHSTDEYFIQTDEEGIRHYVVDKKKLNEYHQNNQEAFKQALENRIDIVVCDNTNFESWQSKPYTDMAREFGYKILLIDFKNRHLETPMDYGWDVAQCIKKPRGIAKHYDYDFYLERVLVEPQDYEKQNRELSLKALEFLKYNFDFDVIFYSFGEQLMPILTRMLVSVSKSHRKRLENYGKDIKTLEHHHHHHLEHHHHHHLEHHHHHHLEHHHHHHLEHHHHHHLEHHHHHHLEHHHHHH”, the “soluble on expression in E. coli” value is reported as “not soluble”. For “MIITTSRKPSQRTRSLVNDLARVFNFKILNRGKIPLSELIENKDDMIIVEELKGNPGRLKIFNFENNKILSMNLSLKLQREVSGKAFKNSGKLGSKFDKNTEHLKEFFFEYLFKKLSNYKEENFEVVITFKTVDESTFYIEVHKGSENMGPSLKIKTVKILDIELEHHHHHH” the value was “not soluble”; for “AVVASLKPVGFIASAIADGVTETEVLLPDGASEHDYSLRPSDVKRLQNADLVVWVGPEMEAFMQKPVSKLPGAKQVTIAQLEDVKPLLMKSIHGDDDDHDHAEKSDEDHHHGDFNMHLWLSPEIARATAVAIHGKLVELMPQSRAKLDANLKDFEAQLASTETQVGNELAPLKGKGYFVFHDAYGYFEKQFGLTPLGHFTVNPEIQPGAQRLHEIRTQLVEQKATCVFAEPQFRPAVVESVARGTSVRMGTLDPLGTNIKLGKTSYSEFLSQLANQYASCLKGD”, “soluble”; for “AHHHHHHGSEAWRGRSQAVVDNLAPRVVDMLVPEGFKPTQEEQLSSYDVEKKELATVYMITLVSGSGEKEEEVEEETPTQTETQTPTETRTETKTPTETTTTTPTETKETPTQTTTTQPARTETQGGICGPGLIVLLAALGVLRRRS”, “not soluble”.
